The source of these data is paper PMC12320502.

For this assay, the target named is HSPA5 tagged with Myc (pcDNA3.1) (UniProt P11021). Briefly: Co-IP (IP: Flag, immunoblot: Myc), band intensity number under the Myc blot. Conditions: parent: 1.0. Background: A western blot detects proteins with antibodies after separation by electrophoresis.
Chain of UniProt P11021 (P11021 19-654): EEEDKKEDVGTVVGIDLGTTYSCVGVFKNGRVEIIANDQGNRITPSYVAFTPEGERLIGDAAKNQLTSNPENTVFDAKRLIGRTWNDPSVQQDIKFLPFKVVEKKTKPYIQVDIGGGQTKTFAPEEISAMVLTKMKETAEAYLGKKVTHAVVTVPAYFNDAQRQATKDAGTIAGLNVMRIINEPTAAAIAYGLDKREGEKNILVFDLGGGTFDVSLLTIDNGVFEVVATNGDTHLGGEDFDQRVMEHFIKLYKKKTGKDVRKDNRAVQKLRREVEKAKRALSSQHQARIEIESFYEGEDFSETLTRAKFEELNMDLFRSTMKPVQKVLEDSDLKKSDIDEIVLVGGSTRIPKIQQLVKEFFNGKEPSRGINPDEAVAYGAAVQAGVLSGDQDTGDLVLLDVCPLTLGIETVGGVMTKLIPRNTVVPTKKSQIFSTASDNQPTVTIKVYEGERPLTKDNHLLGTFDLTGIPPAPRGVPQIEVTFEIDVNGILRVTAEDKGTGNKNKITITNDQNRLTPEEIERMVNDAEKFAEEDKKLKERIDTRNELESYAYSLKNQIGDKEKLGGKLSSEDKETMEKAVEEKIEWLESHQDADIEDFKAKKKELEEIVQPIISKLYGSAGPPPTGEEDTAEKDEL
Turning to “SBSPON tagged with 3×Flag (pcDNA3.1-3×Flag-SBSPON) (from UniProt Q8IVN8) ASP88Vla”, the ratio to parent stood at 0.7.
The same measure for “SBSPON tagged with 3×Flag (pcDNA3.1-3×Flag-SBSPON) (from UniProt Q8IVN8) ASP88Vla; LYS91Vla; GLU123Vla; HIS134Vla”: 0.8; for “SBSPON tagged with 3×Flag (pcDNA3.1-3×Flag-SBSPON) (from UniProt Q8IVN8) GLU123Vla”: 0.9.
For “SBSPON tagged with 3×Flag (pcDNA3.1-3×Flag-SBSPON) (from UniProt Q8IVN8) HIS134Vla”, the ratio to parent stood at 0.8.
The same measure for “SBSPON tagged with 3×Flag (pcDNA3.1-3×Flag-SBSPON) (from UniProt Q8IVN8) LYS91Vla”: 0.9.
